Reference: patent US20170240637A1 (Memorial Sloan Kettering, published 2017)

Experiments:
[1] = target: T1, 2Ig-B7H3 without Fc fusion (human, UniProt Q5ZPR3-2 29-245, limits assumed); experiment: SPR, IgG on 2Ig-B7-H3 without Fc fusion
T1 construct: also called 2IgB7H3 (R&D)
T1 sequence (looked up): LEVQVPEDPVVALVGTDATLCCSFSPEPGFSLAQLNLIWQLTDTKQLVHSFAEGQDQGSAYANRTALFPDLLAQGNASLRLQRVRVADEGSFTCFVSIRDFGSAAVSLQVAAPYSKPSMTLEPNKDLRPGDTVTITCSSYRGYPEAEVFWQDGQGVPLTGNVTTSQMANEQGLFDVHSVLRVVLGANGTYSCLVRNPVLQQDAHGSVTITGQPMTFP
Description: (§1) In brief, B7H3 antigen (either 2Ig-B7H3, 4Ig-B7H3, 2Ig-B7H3-mFc, 4Ig-B7H3-mFc), was directly immobilized onto the CM5 sensor chip via […]. Reference surface was set up for nonspecific binding and refractive index changes. […] The association and dissociation phase data were fitted simultaneously to a 1:1 model by using BIAevaluation 3.2. All the experiments were done at 25° C.

4Ig-B7H3 [2] = target: T2, 4Ig-B7H3 (human, UniProt Q5ZPR3 27-461, limits assumed); experiment: SPR, IgG on 4Ig-B7-H3 without Fc fusion
T2 construct: also called 4Ig-B73H3
T2 sequence (looked up): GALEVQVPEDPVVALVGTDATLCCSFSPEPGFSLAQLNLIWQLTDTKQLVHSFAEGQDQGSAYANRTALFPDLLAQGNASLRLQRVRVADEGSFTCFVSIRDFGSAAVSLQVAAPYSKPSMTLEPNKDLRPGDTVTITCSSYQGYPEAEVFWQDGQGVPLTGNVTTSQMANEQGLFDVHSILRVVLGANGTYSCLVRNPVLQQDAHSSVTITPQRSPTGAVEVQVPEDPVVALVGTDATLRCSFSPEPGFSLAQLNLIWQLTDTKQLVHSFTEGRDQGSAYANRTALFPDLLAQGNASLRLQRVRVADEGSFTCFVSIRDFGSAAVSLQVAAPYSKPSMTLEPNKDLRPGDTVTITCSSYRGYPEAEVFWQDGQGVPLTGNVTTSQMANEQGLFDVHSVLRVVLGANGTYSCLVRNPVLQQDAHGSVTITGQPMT
Description: as §1

wild type 2Ig-B7H3-mFc [3] = target: T3, wild type 2Ig-B7H3-mFc (human, UniProt Q5ZPR3-2 29-248, limits assumed); experiment: SPR, IgG on 2Ig-B7H3-mFc
T3 construct: Q5ZPR3 canonical entry is the 4Ig isoform; the 2Ig form is its shorter isoform; also called 2Ig-B7H3-Fc; WT 2Ig-B7H3-Fc; not shown: mouse Fc
T3 sequence (looked up): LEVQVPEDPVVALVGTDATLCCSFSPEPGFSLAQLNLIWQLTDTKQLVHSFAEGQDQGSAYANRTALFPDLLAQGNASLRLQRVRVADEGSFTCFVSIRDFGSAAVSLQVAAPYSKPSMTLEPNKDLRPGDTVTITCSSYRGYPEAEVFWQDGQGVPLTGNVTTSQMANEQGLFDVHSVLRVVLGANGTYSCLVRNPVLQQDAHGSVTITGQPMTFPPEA
Description: as §1

[4] = target: B7H3 on B7H3-positive human tumor cells (M14, LAN-1, IMR-32, HeLa) (human) (UniProt Q5ZPR3); experiment: cell-binding assay of 131I-labelled antibody on LAN-1 cells
[5] = target: T1, 2Ig-B7H3 without Fc fusion; experiment: SPR
4Ig-B7H3 [6] = target: T2, 4Ig-B7H3; experiment: SPR
[7] = target: T4, 4Ig-B7H3 fused to mouse Fc (B7H3-mFc) (human, UniProt Q5ZPR3 29-466, limits assumed, biotinylated on primary amines (NHS-biotin) in the experiment of paragraph 316); experiment: SPR, IgG on 4Ig-B7H3-Fc
T4 construct: Expressed in DG44 CHO cells; also called 4Ig-B7H3-Fc; 4Ig-B7H3-mFc; not shown: mouse Fc
T4 sequence (looked up): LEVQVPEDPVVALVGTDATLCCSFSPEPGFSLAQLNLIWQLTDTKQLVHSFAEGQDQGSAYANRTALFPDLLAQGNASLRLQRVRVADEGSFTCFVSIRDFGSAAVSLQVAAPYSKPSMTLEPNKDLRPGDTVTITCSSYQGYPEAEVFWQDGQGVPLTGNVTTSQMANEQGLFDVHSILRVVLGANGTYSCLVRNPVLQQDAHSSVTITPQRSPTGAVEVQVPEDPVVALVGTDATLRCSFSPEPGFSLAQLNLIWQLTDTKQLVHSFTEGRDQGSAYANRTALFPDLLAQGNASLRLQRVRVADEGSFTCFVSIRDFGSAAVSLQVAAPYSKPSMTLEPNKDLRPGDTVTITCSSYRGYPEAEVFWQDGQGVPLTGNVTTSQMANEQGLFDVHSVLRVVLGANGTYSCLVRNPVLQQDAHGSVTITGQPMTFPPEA
Description: as §1

[8] = target: T5, 2Ig-B7H3-mFc mutant R127A (human, UniProt Q5ZPR3-2 29-248, limits assumed); experiment: SPR, IgG over immobilised 2Ig-B7H3-mFc R127A (left panel); antibody concentration not shown
T5 construct: not shown: mouse Fc
T5 sequence (looked up): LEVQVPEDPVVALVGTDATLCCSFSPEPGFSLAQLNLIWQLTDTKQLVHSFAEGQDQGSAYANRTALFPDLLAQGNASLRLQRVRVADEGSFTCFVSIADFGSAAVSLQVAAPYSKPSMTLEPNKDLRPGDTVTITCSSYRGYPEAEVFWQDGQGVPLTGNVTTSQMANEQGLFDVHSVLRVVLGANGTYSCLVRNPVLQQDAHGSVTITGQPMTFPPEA

[9] = target: B7H3 on B7H3-positive human tumor cells (M14, LAN-1, IMR-32, HeLa) (human) (UniProt Q5ZPR3); experiment: cell-based or functional assay
wild type 2Ig-B7H3-mFc [10] = target: T3, wild type 2Ig-B7H3-mFc; experiment: SPR, antigen on CM5 chip
Description: (§2) In brief, B7H3 antigen (either 2Ig-B7H3, 4Ig-B7H3, 2Ig-B7H3-mFc, 4Ig-B7H3-mFc), was directly immobilized onto the CM5 sensor chip via […]. Reference surface was set up for nonspecific binding and refractive index changes. For analysis of the kinetics of interactions, varying concentrations of scFvs were injected at flow rate of 30 μl/min using running buffer containing 10 mM HEPES, 150 mM NaCl, 3 mM EDTA, and 0.05% Surfactant P-20 (pH 7.4). The association and dissociation phase data were fitted simultaneously to a 1:1 model by using BIAevaluation 3.2. All the experiments were done at 25° C.

4Ig-B7H3 [11] = target: T2, 4Ig-B7H3; experiment: ELISA titled 'B7H3 ELISA'; legend: 4Ig-B7H3 (the ELISA method coats B7H3-mFc); IgG serially diluted
Description: B7H3-mFc (100 ng/well) or 2IgB7H3 (R&D, Minneapolis, Minn.) (25 ng/well) were coated on polyvinyl microtiter plates in PBS overnight. Plates were then blocked with 0.5% BSA in PBS at 150 μl per well for 1 h at room temperature. Antibodies were added in triplicates with serial dilution in 0.5% BSA. Following incubation for 1 h at room temperature and washing with PBS, HRP-mouse anti-human Fc antibody, HRP-streptavidin, or HRP-mouse anti-Flag antibody was added. After incubation for 1 h at room temperature and further washing, the color was developed and quantified using an ELISA plate reader at 490 nm.

[12] = target: T5, 2Ig-B7H3-mFc mutant R127A; experiment: SPR, mutant 2Ig-B7H3-mFc on chip
Description: as §2

[13] = target: T5, 2Ig-B7H3-mFc mutant R127A; experiment: SPR, IgG over immobilised 2Ig-B7H3-mFc R127A (right panel); antibody concentration not shown

B1: hu8H9 3.1 IgG1 (antibody, V domains shown)
VH: QVQLVQSGAEVVKPGASVKLSCKTSGYTFTNYDINWVRQRPGQGLEWIGWIFPGDDSTQYNEKFKGKATLTTDTSTSTAYMELSSLRSEDTAVYFCARQTTGTWFAYWGQGTLVTVSS
VL: EIVMTQSPATLSVSPGERVTLSCRASQSISDYLYWYQQKSHESPRLLIKYASQSISGIPARFSGSGSGSEFTLTINSVEPEDVGVYYCQNGHSFPLTFGQGTKLELKR
notes: also called clone 3.1
Kd [1]: 5 nM
koff [1]: 0.000171 s⁻¹
kon [1]: 33900 M⁻¹ s⁻¹
Kd (4Ig-B7H3 [2]): 13 nM
koff (4Ig-B7H3 [2]): 0.000298 s⁻¹
kon (4Ig-B7H3 [2]): 23400 M⁻¹ s⁻¹
Kd (wild type 2Ig-B7H3-mFc [3]): 6 nM
koff (wild type 2Ig-B7H3-mFc [3]): 0.000232 s⁻¹
kon (wild type 2Ig-B7H3-mFc [3]): 38700 M⁻¹ s⁻¹
in vitro immunoreactivity [4]: 54%
fold enhancement in affinity against parental hu8H9 H3L3 [5]: 2.5 to 9 fold
fold enhancement in affinity against parental hu8H9 H3L3 (4Ig-B7H3 [6]): 2.5 to 9 fold
Kd [7]: 2 nM
koff [7]: 0.000114 s⁻¹
kon [7]: 55600 M⁻¹ s⁻¹
binding result [8]: no binding
ADCC EC50 (µg/ml), 51Cr release, LAN-1 targets, human PBMC effectors [9]: 0.31 µg/mL
Fold change EC50 relative to ch8H9 (ADCC) [9]: 5 fold

B2: mouse/human chimeric 8H9 (ch8H9) IgG1 (antibody, V domains shown)
VH: QVQLQQSGAELVKPGASVKLSCKASGYTFTNYDINWVRQRPEQGLEWIGWIFPGDGSTQYNEKFKGKATLTTDTSSSTAYMQLSRLTSEDSAVYFCARQTTATWFAYWGQGTLVTVSA
VL: DIVMTQSPATLSVTPGDRVSLSCRASQSISDYLHWYQQKSHESPRLLIKYASQSISGIPSRFSGSGSGSDFTLSINSVEPEDVGVYYCQNGHSFPLTFGAGTKLELKR
Kd [1]: 2.7 nM
koff [1]: 8.73e-05 s⁻¹
kon [1]: 32100 M⁻¹ s⁻¹
Kd (wild type 2Ig-B7H3-mFc [10]): 0.74 nM
koff (wild type 2Ig-B7H3-mFc [10]): 3.51e-05 s⁻¹
kon (wild type 2Ig-B7H3-mFc [10]): 47400 M⁻¹ s⁻¹
Kd (4Ig-B7H3 [2]): 7.7 nM
koff (4Ig-B7H3 [2]): 0.000218 s⁻¹
kon (4Ig-B7H3 [2]): 28300 M⁻¹ s⁻¹
EC50 (read off the curve) (4Ig-B7H3 [11]): ~0.005 µg/mL
Kd (wild type 2Ig-B7H3-mFc [3]): 0.76 nM
koff (wild type 2Ig-B7H3-mFc [3]): 3.79e-05 s⁻¹
kon (wild type 2Ig-B7H3-mFc [3]): 49600 M⁻¹ s⁻¹
Kd [7]: 1.2 nM
koff [7]: 5.49e-05 s⁻¹
kon [7]: 44800 M⁻¹ s⁻¹
binding result [12]: no binding (tested: 400 nM)

B3: hu8H9 5.1 IgG1 (antibody, V domains shown)
VH: QVQLVQSGAEVVKPGASVKVSCKTSGYTFTNYDINWVRQRPGQGLEWIGWIFPGDDSTQYNEKFKGRVTMTTDTSTSTVYMELSSLRSEDTAVYFCARQTTGTWFAYWGQGTLVTVSS
VL: EIVMTQSPATLSVSPGERVTLSCRASQSISDYLYWYQQKSHQAPRLLIKYASQSISGIPARFSGSGSGSEFTLTISSLQPEDFGVYYCQNGHSFPLTFGQGTKLELKR
notes: also called clone 5.1
Kd (wild type 2Ig-B7H3-mFc [3]): 0.82 nM
koff (wild type 2Ig-B7H3-mFc [3]): 5.59e-05 s⁻¹
kon (wild type 2Ig-B7H3-mFc [3]): 67800 M⁻¹ s⁻¹
binding result [13]: no binding
Kd [7]: 1.3 nM
koff [7]: 7.08e-05 s⁻¹
kon [7]: 59200 M⁻¹ s⁻¹
ADCC EC50 (µg/ml), 51Cr release, LAN-1 targets, human PBMC effectors [9]: 0.16 µg/mL
Fold change EC50 relative to ch8H9 (ADCC) [9]: 9 fold
